Data from paper PMC11574045, “A cofactor-induced repressive type of transcription factor condensation can be induced by synthetic peptides to suppress tumorigenesis” (The EMBO Journal, 2024).

B1: ZKSCAN3 (protein, UniProt Q9BRR0 1-538, looked up)
Zinc finger protein with KRAB …: MARELSESTALDAQSTEDQMELLVIKVEEEEAGFPSSPDLGSEGSRERFRGFRYPEAAGPREALSRLRELCRQWLQPEMHSKEQILELLVLEQFLTILPGNLQSWVREQHPESGEEVVVLLEYLERQLDEPAPQVSGVDQGQELLCCKMALLTPAPGSQSSQFQLMKALLKHESVGSQPLQDRVLQVPVLAHGGCCREDKVVASRLTPESQGLLKVEDVALTLTPEWTQQDSSQGNLCRDEKQENHGSLVSLGDEKQTKSRDLPPAEELPEKEHGKISCHLREDIAQIPTCAEAGEQEGRLQRKQKNATGGRRHICHECGKSFAQSSGLSKHRRIHTGEKPYECEECGKAFIGSSALVIHQRVHTGEKPYECEECGKAFSHSSDLIKHQRTHTGEKPYECDDCGKTFSQSCSLLEHHRIHTGEKPYQCSMCGKAFRRSSHLLRHQRIHTGDKNVQEPEQGEAWKSRMESQLENVETPMSYKCNECERSFTQNTGLIEHQKIHTGEKPYQCNACGKGFTRISYLVQHQRSHVGKNILSQ
B2: CALR (protein, UniProt P27797 18-417, looked up)
Calreticulin: EPAVYFKEQFLDGDGWTSRWIESKHKSDFGKFVLSSGKFYGDEEKDKGLQTSQDARFYALSASFEPFSNKGQTLVVQFTVKHEQNIDCGGGYVKLFPNSLDQTDMHGDSEYNIMFGPDICGPGTKKVHVIFNYKGKNVLINKDIRCKDDEFTHLYTLIVRPDNTYEVKIDNSQVESGSLEDDWDFLPPKKIKDPDASKPEDWDERAKIDDPTDSKPEDWDKPEHIPDPDAKKPEDWDEEMDGEWEPPVIQNPEYKGEWKPRQIDNPDYKGTWIHPEIDNPEYSPDPSIYAYDNFGVLGLDLWQVKSGTIFDNFLITNDEAYAEEFGNETWGVTKAAEKQMKDKQDEEQRLKEEEEDKKRKEEEEAEDKEDDEDKDEDEEDEEDKEEDEEEDVPGQAKDEL
B3: CARF (protein, UniProt Q9NXV6 2-580, looked up)
CDKN2A-interacting protein: AQEVSEYLSQNPRVAAWVEALRCDGETDKHWRHRRDFLLRNAGDLAPAGGAASASTDEAADAESGTRNRQLQQLISFSMAWANHVFLGCRYPQKVMDKILSMAEGIKVTDAPTYTTRDELVAKVKKRGISSSNEGVEEPSKKRVIEGKNSSAVEQDHAKTSAKTERASAQQENSSTCIGSAIKSESGNSARSSGISSQNSSTSDGDRSVSSQSSSSVSSQVTTAGSGKASEAEAPDKHGSASFVSLLKSSVNSHMTQSTDSRQQSGSPKKSALEGSSASASQSSSEIEVPLLGSSGSSEVELPLLSSKPSSETASSGLTSKTSSEASVSSSVAKNSSSSGTSLLTPKSSSSTNTSLLTSKSTSQVAASLLASKSSSQTSGSLVSKSTSLASVSQLASKSSSQTSTSQLPSKSTSQSSESSVKFSCKLTNEDVKQKQPFFNRLYKTVAWKLVAVGGFSPNVNHGELLNAAIEALKATLDVFFVPLKELADLPQNKSSQESIVCELRCKSVYLGTGCGKSKENAKAVASREALKLFLKKKVVVKICKRKYRGSEIEDLVLLDEESRPVNLPPALKHPQELL
B4: ZFP36L1 (protein, UniProt P23950 1-338, looked up)
mRNA decay activator protein …: MTTTLVSATIFDLSEVLCKGNKMLNYSTPSAGGCLLDRKAVGTPAGGGFPRRHSVTLPSSKFHQNQLLSSLKGEPAPSLSSRDSRFRDRSFSEGGERLLPTQKQPGSGQVNSSRYKTELCRPFEENGACKYGDKCQFAHGIHELRSLTRHPKYKTELCRTFHTIGFCPYGPRCHFIHNAEERRALAGGRDLSADRPRLQHSFSFAGFPSAAATAAATGLLDSPTSITPPPILSADDLLGSPTLPDGTNNPFAFSSQELASLFAPSMGLPGGGSPTTFLFRPMSESPHMFDSPPSPQDSLSDHEGYLSSSSSSHSGSDSPTLDNSRRLPIFSRLSISDD
B5: ZGLP1 (protein, UniProt P0C6A0 1-273, looked up)
GATA-type zinc finger protein …: MEAEPIPDSSMPAKLLAPPCLNLERLGGSPSQEKPRTPGCCRISERSLWPACQESVTALCFLQETVERLGQSPAQDTPVLGPCWDPMALGTQGRLLLDRDSKDTQTRISQKGRRLQPPGTPSAPPQRRPRKQLNPCRGTERVDPGFEGVTLKFQIKPDSSLQIIPTYSLPCSSRSQESPADAVGGPAAHPGGTEAHSAGSEALEPRRCASCRTQRTPLWRDAEDGTPLCNACGIRYKKYGTRCSSCWLVPRKNVQPKRLCGRCGVSLDPIQEG
B6: CALCOCO1 (protein, UniProt Q9P1Z2 1-691, looked up)
Calcium-binding and …: MEESPLSRAPSRGGVNFLNVARTYIPNTKVECHYTLPPGTMPSASDWIGIFKVEAACVRDYHTFVWSSVPESTTDGSPIHTSVQFQASYLPKPGAQLYQFRYVNRQGQVCGQSPPFQFREPRPMDELVTLEEADGGSDILLVVPKATVLQNQLDESQQERNDLMQLKLQLEGQVTELRSRVQELERALATARQEHTELMEQYKGISRSHGEITEERDILSRQQGDHVARILELEDDIQTISEKVLTKEVELDRLRDTVKALTREQEKLLGQLKEVQADKEQSEAELQVAQQENHHLNLDLKEAKSWQEEQSAQAQRLKDKVAQMKDTLGQAQQRVAELEPLKEQLRGAQELAASSQQKATLLGEELASAAAARDRTIAELHRSRLEVAEVNGRLAELGLHLKEEKCQWSKERAGLLQSVEAEKDKILKLSAEILRLEKAVQEERTQNQVFKTELAREKDSSLVQLSESKRELTELRSALRVLQKEKEQLQEEKQELLEYMRKLEARLEKVADEKWNEDATTEDEEAAVGLSCPAALTDSEDESPEDMRLPPYGLCERGDPGSSPAGPREASPLVVISQPAPISPHLSGPAEDSSSDSEAEDEKSVLMAAVQSGGEEANLLLPELGSAFYDMASGFTVGTLSETSTGGPATPTWKECPICKERFPAESDKDALEDHMDGHFFFSTQDPFTFE
B7: ZIC3 (protein, UniProt O60481 1-467, looked up)
Zinc finger protein ZIC 3: MTMLLDGGPQFPGLGVGSFGAPRHHEMPNREPAGMGLNPFGDSTHAAAAAAAAAAFKLSPAAAHDLSSGQSSAFTPQGSGYANALGHHHHHHHHHHHTSQVPSYGGAASAAFNSTREFLFRQRSSGLSEAASGGGQHGLFAGSASSLHAPAGIPEPPSYLLFPGLHEQGAGHPSPTGHVDNNQVHLGLRGELFGRADPYRPVASPRTDPYAAGAQFPNYSPMNMNMGVNVAAHHGPGAFFRYMRQPIKQELSCKWIDEAQLSRPKKSCDRTFSTMHELVTHVTMEHVGGPEQNNHVCYWEECPREGKSFKAKYKLVNHIRVHTGEKPFPCPFPGCGKIFARSENLKIHKRTHTGEKPFKCEFEGCDRRFANSSDRKKHMHVHTSDKPYICKVCDKSYTHPSSLRKHMKVHESQGSDSSPAASSGYESSTPPAIASANSKDTTKTPSAVQTSTSHNPGLPPNFNEWYV
B8: ZFP67 (protein, UniProt O15156 1-539, looked up)
Zinc finger and BTB …: MGSPEDDLIGIPFPDHSSELLSCLNEQRQLGHLCDLTIRTQGLEYRTHRAVLAACSHYFKKLFTEGGGGAVMGAGGSGTATGGAGAGVCELDFVGPEALGALLEFAYTATLTTSSANMPAVLQAARLLEIPCVIAACMEILQGSGLEAPSPDEDDCERARQYLEAFATATASGVPNGEDSPPQVPLPPPPPPPPRPVARRSRKPRKAFLQTKGARANHLVPEVPTVPAHPLTYEEEEVAGRVGSSGGSGPGDSYSPPTGTASPPEGPQSYEPYEGEEEEEELVYPPAYGLAQGGGPPLSPEELGSDEDAIDPDLMAYLSSLHQDNLAPGLDSQDKLVRKRRSQMPQECPVCHKIIHGAGKLPRHMRTHTGEKPFACEVCGVRFTRNDKLKIHMRKHTGERPYSCPHCPARFLHSYDLKNHMHLHTGDRPYECHLCHKAFAKEDHLQRHLKGQNCLEVRTRRRRKDDAPPHYPPPSTAAASPAGLDLSNGHLDTFRLSLARFWEQSAPTGPPVSTPGPPDDDEEEGAPTTPQAEGAMESS
B9: ZNF165 (protein, UniProt P49910 1-485, looked up)
Zinc finger protein 165: MATEPKKAAAQNSPEDEGLLIVKIEEEEFIHGQDTCLQRSELLKQELCRQLFRQFCYQDSPGPREALSRLRELCCQWLKPEIHTKEQILELLVLEQFLTILPGDLQAWVHEHYPESGEEAVTILEDLERGTDEAVLQVQAHEHGQEIFQKKVSPPGPALNVKLQPVETKAHFDSSEPQLLWDCDNESENSRSMPKLEIFEKIESQRIISGRISGYISEASGESQDICKSAGRVKRQWEKESGESQRLSSAQDEGFGKILTHKNTVRGEIISHDGCERRLNLNSNEFTHQKSCKHGTCDQSFKWNSDFINHQIIYAGEKNHQYGKSFKSPKLAKHAAVFSGDKTHQCNECGKAFRHSSKLARHQRIHTGERCYECNECGKSFAESSDLTRHRRIHTGERPFGCKECGRAFNLNSHLIRHQRIHTREKPYECSECGKTFRVSSHLIRHFRIHTGEKPYECSECGRAFSQSSNLSQHQRIHMRENLLM
B10: ZFY (protein, UniProt P08048 1-801, looked up)
Zinc finger Y-chromosomal …: MDEDEFELQPQEPNSFFDGIGADATHMDGDQIVVEIQEAVFVSNIVDSDITVHNFVPDDPDSVVIQDVVEDVVIEEDVQCSDILEEADVSENVIIPEQVLDSDVTEEVSLPHCTVPDDVLASDITSTSMSMPEHVLTSESMHVCDIGHVEHMVHDSVVEAEIITDPLTSDIVSEEVLVADCAPEAVIDASGISVDQQDNDKASCEDYLMISLDDAGKIEHDGSTGVTIDAESEMDPCKVDSTCPEVIKVYIFKADPGEDDLGGTVDIVESEPENDHGVELLDQNSSIRVPREKMVYMTVNDSQQEDEDLNVAEIADEVYMEVIVGEEDAAVAAAAAAVHEQQIDEDEMKTFVPIAWAAAYGNNSDGIENRNGTASALLHIDESAGLGRLAKQKPKKKRRPDSRQYQTAIIIGPDGHPLTVYPCMICGKKFKSRGFLKRHMKNHPEHLAKKKYHCTDCDYTTNKKISLHNHLESHKLTSKAEKAIECDECGKHFSHAGALFTHKMVHKEKGANKMHKCKFCEYETAEQGLLNRHLLAVHSKNFPHICVECGKGFRHPSELRKHMRIHTGEKPYQCQYCEYRSADSSNLKTHIKTKHSKEMPFKCDICLLTFSDTKEVQQHTLVHQESKTHQCLHCDHKSSNSSDLKRHVISVHTKDYPHKCEMCEKGFHRPSELKKHVAVHKGKKMHQCRHCDFKIADPFVLSRHILSVHTKDLPFRCKRCRKGFRQQNELKKHMKTHSGRKVYQCEYCEYSTTDASGFKRHVISIHTKDYPHRCEYCKKGFRRPSEKNQHIMRHHKEVGLP
B11: ZFP296 (protein, UniProt Q8WUU4 1-475, looked up)
Zinc finger protein 296: MSRRKAGSAPRRVEPAPAANPDDEMEMQDLVIELKPEPDAQPQQAPRLGPFSPKEVSSAGRFGGEPHHSPGPMPAGAALLALGPRNPWTLWTPLTPNYPDRQPWTDKHPDLLTCGRCLQTFPLEAITAFMDHKKLGCQLFRGPSRGQGSEREELKALSCLRCGKQFTVAWKLLRHAQWDHGLSIYQTESEAPEAPLLGLAEVAAAVSAVVGPAAEAKSPRASGSGLTRRSPTCPVCKKTLSSFSNLKVHMRSHTGERPYACDQCPYACAQSSKLNRHKKTHRQVPPQSPLMADTSQEQASAAPPEPAVHAAAPTSTLPCSGGEGAGAAATAGVQEPGAPGSGAQAGPGGDTWGAITTEQRTDPANSQKASPKKMPKSGGKSRGPGGSCEFCGKHFTNSSNLTVHRRSHTGERPYTCEFCNYACAQSSKLNRHRRMHGMTPGSTRFECPHCHVPFGLRATLDKHLRQKHPEAAGEA

The molecules below were run on HEK293FT cells transfected with TF library (assay: Screening of TF condensates based on fluorescent puncta). Conditions: Figure 1B numerical data; TF library screen, one value per transcriptional factor.
Format: cell-based
Method in brief: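 Cells were seeded onto plasmid/PEI-loaded wells (plasmid 1.6 μg/ml final) and grown 60 h. Medium with or without glucose followed for 12 h. Fixed, permeabilized cells were stained against Flag or GAL4 tags, and condensate puncta were quantified from 50 random fields per well.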

Point of comparison: B2, “Z score of condensed fraction” value 1.22. Against it:
- B1 — lower, 0.9842
- B3 — higher, 2.409
- B4 — lower, 0.2477
- B5 — lower, -0.7375
- B6 — lower, 0.2225
- B7 — lower, -0.3091
- B8 — lower, 0.1735
- B9 — lower, 0.7106
- B10 — lower, -1.019
- B11 — lower, 0.8818
